Source: paper PMC9138599, “Clade-Specific Alterations within the HIV-1 Capsid Protein with Implications for Nuclear Translocation” (Biomolecules, 2022)
Where “and” joins values, the source holds several entries; their conditions need not be identical. Identical values can stand only once.

Key:
[1] = biological target: HIV-1 CA hexamer from clade A1 (isolate 92UG037.1) (HIV-1 isolate 92UG037.1 (clade A1)); test: cross-linking
[2] = biological target: HIV-1 CA hexamer from clade B (isolate NL4-3) (HIV-1 isolate NL4-3 (clade B)); test: cross-linking
[3] = biological target: HIV-1 CA hexamer from clade A2 (isolate CDKTB48) (HIV-1 isolate CDKTB48 (clade A2)); test: cross-linking
[4] = biological target: HIV-1 CA hexamer from clade D (isolate 94UG114.1) (HIV-1 isolate 94UG114.1 (clade D)); test: cross-linking
[5] = biological target: HIV-1 CA hexamer from clade C (isolate 92BR025.8) (HIV-1 isolate 92BR025.8 (clade C)); test: cross-linking
[6] = biological target: HIV-1 CA hexamer from clade D (isolate 94UG114.1) (HIV-1 isolate 94UG114.1 (clade D)); test: SPR; CA hexamer amine-coupled to a ProteOn GLH chip, peptide injected as analyte; 25 °C; 1x PBS pH 7.4, 3% DMSO, 0.005% polysorbate 20; reference surface IgG b12; 1:1 binding model; KD from a Langmuir isotherm equilibrium fit and from a global kinetic fit; triplicate
[7] = biological target: HIV-1 CA hexamer from clade A2 (isolate CDKTB48) (HIV-1 isolate CDKTB48 (clade A2)); test: as above
[8] = biological target: HIV-1 CA hexamer from clade C (isolate 92BR025.8) (HIV-1 isolate 92BR025.8 (clade C)); test: as above
[9] = biological target: NUP-153 RRR patch (Homo sapiens) (UniProt P49790); settings: cited from earlier work

## HIV-1 CA hexamer from clade A1 (isolate 92UG037.1) (natural protein)
[1]
  stoichiometry N: 6

## HIV-1 CA hexamer from clade B (isolate NL4-3) (natural protein)
[2]
  stoichiometry N: 6

## HIV-1 CA hexamer from clade A2 (isolate CDKTB48) (natural protein)
[3]
  stoichiometry N: 6

## HIV-1 CA hexamer from clade D (isolate 94UG114.1) (natural protein)
[4]
  stoichiometry N: 6

## HIV-1 CA hexamer from clade C (isolate 92BR025.8) (natural protein)
[5]
  stoichiometry N: 6

## NUP-153 peptide (1407-…-1423)
[6]
  Kd: 309 µM and 368 µM
[7]
  Kd: 443 µM and 746 µM
[8]
  Kd: 503 µM and 881 µM

## CA (from UniProt O93215)
[9]
  Kd: 0.8 µM
